For the test, the target named is SARS-CoV-2 spike receptor-binding domain (RBD), residues 333-529 (SARS-CoV-2, UniProt P0DTC2). As to the kind of experiment: crystal structure.

B1: ADI-62113 Fab (Fab, V domains shown)
VH: QVQLQQSGAEVKKPGASVKLSCKASGYTFSVFPIHWVRQAPGQRLEWMGWHNAGDGDTKYSQKFQGRVTIISDTSASTAYMELSSLKSEDTAVYYCARAARPYYDRRGYFFRADYFQHWGQGTLVTVSS
VL: DIQVTQSPSSLSASVGDRVTITCQASQDIKNSLNWYQQKPGKAPKLLISDASNLETGVPSRFSGNGSGTDFTFTISSLQPEDIATYYCQQYDNLITFGPGTKVEIK
For B1, the binding result is “binds”.

(Values after doi:10.1101/2021.12.15.472864 (bioRxiv, 2021).)
